Key:
[1] = tested on: IGF-1 pathway in Panc1 cells; experiment: IGF-1 pathway in Panc1 cells after klotho protein over-expression (immunoblot); assay type: cell-based, human; conditions: IGF-1 12.5 nM, 15 min
Procedure: For pancreatic cells, protein extraction and Western blotting was performed as described (Wolf et al., 2008).
Panc1 cells were transfected with either klotho protein-HA expression plasmid (KL-HA) or a control vector (pcDNA3). After 24 hrs, cells were serum starved for 48 hr and treated with IGF-1 (12.5 nM, 15 min). Following treatment, cells were harvested and proteins were resolved and immunoblotted using antibodies directed against phosphorylated (p) and total (t) IGF-1R, p- and t-AKT, p- and t-ERK1/2.

MCF-7 cells = experiment: IGF-1-induced MCF-7 proliferation after klotho protein transfection; assay type: cell-based, human; conditions: HA-KL-transfected cells, 0.5% serum, IGF-1 24-96 hr; control pcDNA3 cells up to 40%
Procedure: The medium was aspirated, and the cells were dissolved by dimethyl sulfoxide (DMSO).
Klotho protein is known to inhibit activation of the IGF-1 pathway in L6 myoblasts cells and rat hepatoma H4IIE cells (Kurosu et al., 2005). This pathway plays an important role in breast cancer tumorigenesis, and IGF-1 induces MCF-7 cell proliferation (Geier et al., 1995; Yee, 2006). In order to test the ability of klotho protein to modulate IGF-1-induced proliferation and survival, MCF-7 cells were transiently transfected with either pcDNA3 or pcDNA3-HA-KL, and grown in 0.5% serum with either IGF-1 or a control vehicle for 24-96 hr.

Panc1 cells = experiment: In vivo Panc1 tumors in athymic nude mice treated with soluble klotho protein; conditions: 200 ng/day, 500 ng/day daily intra-peritoneal, up to 4 weeks
Procedure: Panc1 cells were harvested, washed twice with sterile PBS, counted and resuspended in Matrigel (BD Biosciences). Six-week-old female athymic nude mice were injected subcutaneously in both flanks with cells at a density of 0.5×10^6 cells/100 μl. The mice were treated with daily intra-peritoneal injections of either soluble klotho protein (prepared as described above): 200 ng/day, 500 ng/day, or vehicle control (saline). Five mice were used in each group. Tumor size was measured weekly with a linear caliper for up to 4 weeks, and tumor volume was estimated using the equation V=(a×b^2)×0.5236, where “a” is the larger dimension and “b” the perpendicular diameter.

[2] = tested on: Colo357, MiaPaCa2, and Panc1; experiment: Colony formation assay of pancreatic carcinoma cell lines transfected with klotho protein vector; assay type: cell-based, human; conditions: pcDNA3-HA-KL vs empty vector; G418 two weeks
Procedure: Two days following transfection with the indicated plasmids, G418 (900 μg/ml for Panc1, 1000 μg/ml for MiaPaCa2 and 750 μg/ml for Colo357, HEK-293 and BON1) was added to the culture media. At day 14, cells were stained using crystal violet (Sigma-Aldrich) and quantitated as described (Wolf et al., 2008).
For the colony formation assay, pancreatic carcinoma cell lines Colo357, MiaPaCa2, and Panc1 were transfected with either a HA-tagged klotho protein expression vector (pcDNA3-HA-KL) or an empty vector (pcDNA3). Transfected cells were cultured in media containing G418 for two weeks. Colonies were stained with crystal violet and photographed.

B1: klotho protein: full length mouse Klotho (SEQ ID NO. 3) over-expressed in cells from HA-tagged expression vector pcDNA3-HA-KL (protein)
chain: MLARAPPRRPPRLVLLRLLLLHLLLLALRARCLSAEPGQGAQTWARFARAPAPEAAGLLHDTFPDGFLWAVGSAAYQTEGGWRQHGKGASIWDTFTHHSGAAPSDSPIVVAPSGAPSPPLSSTGDVASDSYNNVYRDTEGLRELGVTHYRFSISWARVLPNGTAGTPNREGLRYYRRLLERLRELGVQPVVTLYHWDLPQRLQDTYGGWANRALADHFRDYAELCFRHFGGQVKYWITIDNPYVVAWHGYATGRLAPGVRGSSRLGYLVAHNLLLAHAKVWHLYNTSFRPTQGGRVSIALSSHWINPRRMTDYNIRECQKSLDFVLGWFAKPIFIDGDYPESMKNNLSSLLPDFTESEKRLIRGTADFFALSFGPTLSFQLLDPNMKFRQLESPNLRQLLSWIDLEYNHPPIFIVENGWFVSGTTKRDDAKYMYYLKKFIMETLKAIRLDGVDVIGYTAWSLMDGFEWHRGYSIRRGLFYVDFLSQDKELLPKSSALFYQKLIEDNGFPPLPENQPLEGTFPCDFAWGVVDNYVQVDTTLSQFTDPNVYLWDVHHSKRLIKVDGVVAKKRKPYCVDFSAIRPQITLLREMRVTHFRFSLDWALILPLGNQTQVNHTVLHFYRCMISELVHANITPVVALWQPAAPHQGLPHALAKHGAWENPHTALAFADYANLCFKELGHWVNLWITMNEPNTRNMTYRAGHHLLRAHALAWHLYDDKFRAAQKGKISIALQADWIEPACPFSQNDKEVAERVLEFDIGWLAEPIFGSGDYPRVMRDWLNQKNNFLLPYFTEDEKKLVRGSFDFLAVSHYTTILVDWEKEDPMKYNDYLEVQEMTDITWLNSPSQVAVVPWGLRKVLNWLRFKYGDLPMYVTANGIDDDPHAEQDSLRIYYIKNYVNEALKAYVLDDINLCGYFAYSLSDRSAPKSGFYRYAANQFEPKPSMKHYRRIIDSNGFLGSGTLGRFCPEEYTVCTECGFFQTRKSLLVFISFLVFTFIISLALIFHYSKKGQRSYK
modifications: HA tag
- phosphorylation of IGF-1R, AKT1 and ERK1/2 [1]: reduced phosphorylation
- increase of cell proliferation by IGF-1 (MCF-7 cells): 25%
- tumor growth (tumor size) (Panc1 cells): significant dose-response arrest of tumor growth
- number and size of surviving colonies [2]: significantly reduced

Source: US10555963B2, “Klotho protein and related compounds for the treatment and diagnosis of cancer” (TEL HASHOMER MEDICAL RESEARCH INFRASTRUCTURE AND SERVICES …, priority 2007, dated 2020)
